Substrate in this series: CC(C)(O)[C@@H]1CC[C@](C)([C@H]2[C@@H](O)C[C@@]3(C)[C@@H]4C[C@H](O[C@@H]5O[C@H](CO)[C@@H](O)[C@H](O)[C@H]5O)[C@H]5C(C)(C)[C@@H](O[C@@H]6OC[C@@H](O)[C@H](O)[C@H]6O)CC[C@@]56C[C@@]46CC[C@]23C)O1
The series is described as follows: UHPLC kinetic assay of acetylation. The note with it: acetyl-CoA as acyl donor. It is filed as biochemical, Astragalus propinquus.

B1: AmAT7-3 (Astragalus propinquus; A310G) (protein)
chain: MSSLRLVSSSTIQAANDNNDDSSQLIDLTVWDLIGLERESIQQGLLYHHPNQVDTPNQIQHLKHSLSSTLSFFPPFAGRLVITEYEDNTATCFIACNNAGALFVHAVAENTTISDILQPNKYVPPIVNSLFSLNGVKNREGTIQPLLVVQVTELVDGIFIGLTVNHVVADGKSFWLFVNSWAEISRGFQKPSKLPTLERWFLNDTDHPIRFSFSMEEEKKKFQSGQLTTRFFHFTRENIAHLKSKANGEVTLGNTERRISSLQALLAHVWRSVVRCERIDPQEVLYYILLIDARTRLIPPLEDDYFGNAGDAGVVIMKAGELLEGGLGNVAWNMNKVISLNSDEKIKNRYKSWLRTPQLPSMGMHTTFASQLLIIANSPRFNVYGNDFGWGKPLAVRSSAENKRDCKIVLFAGAEEGSIDIEVCLPYEILEALGNDAEFLDNHSIG
notes: full length cloned in pET-28a(+), E. coli BL21(DE3), Ni-NTA; for kinetics and crystals pET28a-TEV plus size exclusion
The term Km denotes the concentration of substrate that gives half-maximal velocity. On to B1, for which the Km (paper prints 'toward 1a', read as formation of product 1a (C3'-O-acetylation) from 1) is 76.7 µM.

B2: AmAT7-3 (Astragalus propinquus; A310W) (protein)
chain: MSSLRLVSSSTIQAANDNNDDSSQLIDLTVWDLIGLERESIQQGLLYHHPNQVDTPNQIQHLKHSLSSTLSFFPPFAGRLVITEYEDNTATCFIACNNAGALFVHAVAENTTISDILQPNKYVPPIVNSLFSLNGVKNREGTIQPLLVVQVTELVDGIFIGLTVNHVVADGKSFWLFVNSWAEISRGFQKPSKLPTLERWFLNDTDHPIRFSFSMEEEKKKFQSGQLTTRFFHFTRENIAHLKSKANGEVTLGNTERRISSLQALLAHVWRSVVRCERIDPQEVLYYILLIDARTRLIPPLEDDYFGNAWDAGVVIMKAGELLEGGLGNVAWNMNKVISLNSDEKIKNRYKSWLRTPQLPSMGMHTTFASQLLIIANSPRFNVYGNDFGWGKPLAVRSSAENKRDCKIVLFAGAEEGSIDIEVCLPYEILEALGNDAEFLDNHSIG
notes: as for B1
As to B2, where the note is “paper prints 'toward 1b', read as formation of product 1b (C4'-O-acetylation) from 1”, the Km is 168.3 µM.
